Test results published in the supplement of paper PMC7125110.
± gives the standard error. Variants at the floor of the assay were thinned out.

B1: glmS ribozyme (parent)
chain: AUAAAAGCGCCAGAACUACAGAAAUGUAGUUGACGAGGAGGAGGUUUAUCGAAUUUUCGGCGGAUGCCUCCAAA

Experiments:
Conditions in all cases: with glucosamine-6-phosphate
glucosamine-6-phosphate [1] = variants of: B1; experiment: self-cleavage kobs at 640 uM GlcN6P; higher = faster cleavage; RNA array
Procedure, shortened: (§1)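 Glucosamine-6-phosphate (40 μM to 10 mM) in HEPES/KCl/Mg(OAc)2 buffer was flowed over sequenced MiSeq chips, and tiles were imaged over ~14 h. Barcoded ribozyme variants there had been transcribed in situ by E. coli RNA polymerase and were tracked through a hybridised Cy3 probe at 37 °C. One- or two-exponential decay fits to per-tile medians, normalised to baseline and to non-cleaving reference variants, gave kobs. kcat and KM came from weighted Michaelis–Menten fits across concentrations.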

glucosamine-6-phosphate [2] = variants of: B1; experiment: self-cleavage kobs at 2500 uM GlcN6P; higher = faster cleavage; RNA array
Procedure, shortened: as §1

glucosamine-6-phosphate [3] = variants of: B1; experiment: self-cleavage kobs at 10000 uM GlcN6P; higher = faster cleavage; RNA array
Procedure, shortened: as §1

Row | Variant | self-cleavage kobs at 640 uM GlcN6P (glucosamine-6-phosphate [1]) [s⁻¹] | self-cleavage kobs at 2500 uM GlcN6P (glucosamine-6-phosphate [2]) [s⁻¹] | self-cleavage kobs at 10000 uM GlcN6P (glucosamine-6-phosphate [3]) [s⁻¹]
1 | U46G U49C U55G | < 1e-05 | < 1e-05 | –
2 | C10A C16U C68A | 0.000489 ± 0.00017 | – | –
3 | A14U C34A C70G | < 1e-05 | < 1e-05 | –
4 | G32C G51U C70A | 0.000153 ± 5.2e-05 | – | 7.14e-05 ± 3e-05
5 | G7U C11U A12C A15C A48G | < 1e-05 | – | –
6 | C11A U30G C34U C50G | 0.000134 ± 2.8e-05 | – | –
7 | G7A C8G A14U U65G | < 1e-05 | < 1e-05 | < 1e-05
8 | G32U A36U G44U A48G | < 1e-05 | < 1e-05 | –
9 | G13A C61U | < 1e-05 | < 1e-05 | < 1e-05
10 | G32U A39G | 0.0002 ± 3.6e-05 | 0.000485 ± 0.00015 | –
11 | U30C A36C G40U | < 1e-05 | < 1e-05 | –
12 | G29C G44C C71U | < 1e-05 | – | –
13 | A6G A12U U56A C71U | 8.01e-05 ± 2.1e-05 | 9.57e-05 ± 2.8e-05 | –
14 | G32U G35U G40A U55A | < 1e-05 | – | –
15 | A6G U54A U57G | < 1e-05 | – | –
16 | A48C C50G C67U C68U | 0.000151 ± 3.3e-05 | 0.000255 ± 8.7e-05 | –
17 | G32A A36U G62U C70G | 0.000218 ± 8.5e-05 | – | –
18 | A6G C10U U54G | < 1e-05 | < 1e-05 | < 1e-05
19 | G9A U47A C70U | < 1e-05 | – | –
20 | C8U U55G G60U | < 1e-05 | – | –
21 | C10G U47A A53U G60U | < 1e-05 | – | –

Row | Variant | self-cleavage kobs at 640 uM GlcN6P (glucosamine-6-phosphate [1]) [s⁻¹] | self-cleavage kobs at 2500 uM GlcN6P (glucosamine-6-phosphate [2]) [s⁻¹] | self-cleavage kobs at 10000 uM GlcN6P (glucosamine-6-phosphate [3]) [s⁻¹]
22 | G32A G44U C67U | 0.000148 ± 2.8e-05 | 0.000244 ± 5.3e-05 | –
23 | A12G A14U C16G U46A A53U | < 1e-05 | – | –
24 | C50G U54C G60C C61G | 0.000234 ± 5.5e-05 | 8.41e-05 ± 2.8e-05 | –
25 | A15U U30G U69A | 0.000116 ± 2.5e-05 | 0.000105 ± 2.9e-05 | –
26 | C16U G51U A64G C68A C71A | < 1e-05 | < 1e-05 | –
27 | U30C G35U C68U | < 1e-05 | < 1e-05 | –
28 | C16U G35U A64C | < 1e-05 | < 1e-05 | –
29 | G44U U47C C71U | < 1e-05 | < 1e-05 | –
30 | C16A G41U G59A | < 1e-05 | < 1e-05 | –
31 | C11A A14U A15G G35C U45A G60U | < 1e-05 | – | –
32 | C70U A72C | 0.000987 ± 0.00042 | 0.0035 ± 0.0017 | –
33 | C34G C58U C68G | 9.4e-05 ± 2.9e-05 | – | –
34 | G41A U45C C70A | 5.47e-05 ± 1.8e-05 | – | –
35 | G9U A36C G43U | < 1e-05 | < 1e-05 | –
36 | A33U G35A A39G G44U C61U G62U | < 1e-05 | < 1e-05 | –
37 | A12U A15G A42U | 0.000151 ± 4.6e-05 | – | –
38 | C10U U57C | < 1e-05 | – | < 1e-05
39 | C8A A53U C58A G59U | < 1e-05 | – | –
40 | G29U A52U U65G C68G | 0.000163 ± 5.2e-05 | 0.000217 ± 5.1e-05 | –
41 | C11U U31C G35C A36U | < 1e-05 | < 1e-05 | –
42 | C10U G37C A39G G41C A48U G62U U65A | < 1e-05 | < 1e-05 | –

Row | Variant | self-cleavage kobs at 640 uM GlcN6P (glucosamine-6-phosphate [1]) [s⁻¹] | self-cleavage kobs at 2500 uM GlcN6P (glucosamine-6-phosphate [2]) [s⁻¹] | self-cleavage kobs at 10000 uM GlcN6P (glucosamine-6-phosphate [3]) [s⁻¹]
43 | A42G A53U C67G | 0.00199 ± 0.00049 | – | 0.00458 ± 0.0017
44 | G29C A36C A39C | < 1e-05 | – | < 1e-05
45 | G7U C11G A64U | < 1e-05 | < 1e-05 | < 1e-05
46 | G13A A53C | 4.8e-05 ± 1.4e-05 | 3.79e-05 ± 1.2e-05 | 0.000139 ± 1.3e-05
47 | A12C G32U | 5.84e-05 ± 2.3e-05 | 8.84e-05 ± 1.6e-05 | 0.000265 ± 5e-05
48 | G35A G37A U57A C68A | 0.000784 ± 0.00036 | – | –
49 | G35A G40U G44U U45C A52U | < 1e-05 | – | –
50 | C8G U30A G43U | < 1e-05 | – | –
51 | G38C G60C U65G | < 1e-05 | – | –
52 | A36G G62A | < 1e-05 | < 1e-05 | < 1e-05
53 | A33U C34G G44A G51A | < 1e-05 | < 1e-05 | –
54 | A15C U46A G60U | < 1e-05 | – | –
55 | A33U G37A G59A | < 1e-05 | – | –
56 | G51U G63C G66U U69A C70A | < 1e-05 | – | –
57 | C10A G44A G59U | < 1e-05 | – | –
58 | C10G G40A C70U | < 1e-05 | < 1e-05 | –
59 | A33C G35A G44U C70U | < 1e-05 | – | –
60 | A6G G9A G29A G32U G40U | < 1e-05 | – | –
61 | C8A A12G G32A | < 1e-05 | – | < 1e-05
62 | C34G G35A G63U | < 1e-05 | – | < 1e-05
63 | A14G A42G C67A | 0.01 ± 0.0028 | 0.00856 ± 0.0041 | –
